B1: VEGF Receptor 1 Kinase (intracellular domain, Cell Signaling Technology) (protein)
chain: RKMKRSSSEIKTDYLSIIMDPDEVPLDEQCERLPYDASKWEFARERLKLGKSLGRGAFGKVVQASAFGIKKSPTCRTVAVKMLKEGATASEYKALMTELKILTHIGHHLNVVNLLGACTKQGGPLMVIVEYCKYGNLSNYLKSKRDLFFLNKDAALHMEPKKEKMEPGLEQGKKPRLDSVTSSESFASSGFQEDKSLSDVEEEEDSDGFYKEPITMEDLISYSFQVARGMEFLSSRKCIHRDLAARNILLSENNVVKICDFGLARDIYKNPDYVRKGDTRLPLKWMAPESIFDKIYSTKSDVWSYGVLLWEIFSLGGSPYPGVQMDEDFCSRLREGMRMRAPEYSTPEIYQIMLDCWHRDPKERPRFAELVEKLGDLLQANVQQDGKDYIPINAILTGNSGFTYSTPAFSEDFFKESISAPKFNSGSSDDVRYVNAFKFMSLERIKTFEELLPNATSMFDDYQGDSSTLLASPMLKRFTWTDSKPKASLKIDLRVTSKSKESGLSDVSRPSFCHSSCGHVSEGKRRFTYDHAELERKIACCSPPPDYNSVVLYSTPPI
B2: PDGF Receptor β Kinase (intracellular domain, Cell Signaling Technology) (protein)
chain: RYEIRWKVIESVSSDGHEYIYVDPMQLPYDSTWELPRDQLVLGRTLGSGAFGQVVEATAHGLSHSQATMKVAVKMLKSTARSSEKQALMSELKIMSHLGPHLNVVNLLGACTKGGPIYIITEYCRYGDLVDYLHRNKHTFLQHHSDKRRPPSAELYSNALPVGLPLPSHVSLTGESDGGYMDMSKDESVDYVPMLDMKGDVKYADIESSNYMAPYDNYVPSAPERTCRATLINESPVLSYMDLVGFSYQVANGMEFLASKNCVHRDLAARNVLICEGKLVKICDFGLARDIMRDSNYISKGSTFLPLKWMAPESIFNSLYTTLSDVWSFGILLWEIFTLGGTPYPELPMNEQFYNAIKRGYRMAQPAHASDEIYEIMQKCWEEKFEIRPPFSQLVLLLERLLGEGYKKKYQQVDEEFLRSDHPAILRSQARLPGFHGLRSPLDTSSVLYTAVQPNEGDNDYIIPLPDPKPEVADEGPLEGSPSLASSTLNEVNTSSTISCDSPLEPQDEPEPEPQLELQVEPEPELEQLPDSGCPAPRAEAEDSFL
B3: IGF-1 Receptor Kinase (intracellular domain, Cell Signaling Technology) (protein)
chain: RKRNNSRLGNGVLYASVNPEYFSAADVYVPDEWEVAREKITMSRELGQGSFGMVYEGVAKGVVKDEPETRVAIKTVNEAASMRERIEFLNEASVMKEFNCHHVVRLLGVVSQGQPTLVIMELMTRGDLKSYLRSLRPEMENNPVLAPPSLSKMIQMAGEIADGMAYLNANKFVHRDLAARNCMVAEDFTVKIGDFGMTRDIYETDYYRKGGKGLLPVRWMSPESLKDGVFTTYSDVWSFGVVLWEIATLAEQPYQGLSNEQVLRFVMEGGLLDKPDNCPDMLFELMRMCWQYNPKMRPSFLEIISSIKEEMEPGFREVSFYYSEENKLPEPEELDLEPENMESVPLDPSASSSSLPLPDRHSGHKAENGPGPGVLVLRASFDERQPYAHMNGGRKNERALPLPQSSTC
B4: ErbB4 Kinase (intracellular domain, Cell Signaling Technology) (protein)
chain: RRKSIKKKRALRRFLETELVEPLTPSGTAPNQAQLRILKETELKRVKVLGSGAFGTVYKGIWVPEGETVKIPVAIKILNETTGPKANVEFMDEALIMASMDHPHLVRLLGVCLSPTIQLVTQLMPHGCLLEYVHEHKDNIGSQLLLNWCVQIAKGMMYLEERRLVHRDLAARNVLVKSPNHVKITDFGLARLLEGDEKEYNADGGKMPIKWMALECIHYRKFTHQSDVWSYGVTIWELMTFGGKPYDGIPTREIPDLLEKGERLPQPPICTIDVYMVMVKCWMIDADSRPKFKELAAEFSRMARDPQRYLVIQGDDRMKLPSPNDSKFFQNLLDEEDLEDMMDAEEYLVPQAFNIPPPIYTSRARIDSNRSEIGHSPPPAYTPMSGNQFVYRDGGFAAEQGVSVPYRAPTSTIPEAPVAQGATAEIFDDSCCNGTLRKPVAPHVQEDSSTQRYSADPTVFAPERSPRGELDEEGYMTPMRDKPKQEYLNPVEENPFVSRRKNGDLQALDNPEYHNASNGPPKAEDEYVNEPLYLNTFANTLGKAEYLKNNILSMPEKAKKAFDNPDYWNHSLPPRSTLQHPDYLQEYSTKYFYKQNGRIRPIVAENPEYLSEFSLKPGTVLPPPPYRHRNTVV

Biological target: GST-poly (Glu,Tyr) fused protein
Sequence (chain, as listed by the source): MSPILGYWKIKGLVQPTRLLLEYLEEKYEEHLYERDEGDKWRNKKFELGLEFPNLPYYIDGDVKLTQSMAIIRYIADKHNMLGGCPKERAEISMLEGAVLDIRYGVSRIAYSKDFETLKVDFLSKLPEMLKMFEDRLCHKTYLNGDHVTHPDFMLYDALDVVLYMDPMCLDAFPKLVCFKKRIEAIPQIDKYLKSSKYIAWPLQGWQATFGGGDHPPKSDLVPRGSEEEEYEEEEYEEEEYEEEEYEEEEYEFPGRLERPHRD

Protein	band of phosphorylated GST-poly (Glu,Tyr) fused protein in Western blotting with anti-phosphotyrosine antibody
B1	In “+” of “i” to “vii”, a single band was seen at positions where a phosphorylated GST-poly (Glu,Tyr) fused protein appears
B2	In “+” of “i” to “vii”, a single band was seen at positions where a phosphorylated GST-poly (Glu,Tyr) fused protein appears
B3	In “+” of “i” to “vii”, a single band was seen at positions where a phosphorylated GST-poly (Glu,Tyr) fused protein appears
B4	In “+” of “i” to “vii”, a single band was seen at positions where a phosphorylated GST-poly (Glu,Tyr) fused protein appears

From patent US20070238141
